T1: biotinylated mouse Robo3 FN1–3 (Avi-tagged) (mouse, UniProt Q9Z2I4 558-869, biotin on the Avi-tag (BirA))
T1 chain: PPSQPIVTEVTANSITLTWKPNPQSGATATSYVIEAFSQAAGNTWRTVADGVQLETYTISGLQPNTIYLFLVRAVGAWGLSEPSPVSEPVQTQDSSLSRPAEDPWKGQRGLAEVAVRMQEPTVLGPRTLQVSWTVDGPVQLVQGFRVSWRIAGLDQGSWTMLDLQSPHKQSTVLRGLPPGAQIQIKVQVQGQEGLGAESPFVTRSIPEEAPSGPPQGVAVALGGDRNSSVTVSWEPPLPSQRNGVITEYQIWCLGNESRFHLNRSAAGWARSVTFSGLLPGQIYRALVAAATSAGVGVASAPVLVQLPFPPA


Molecular target: T1, biotinylated mouse Robo3 FN1–3 …
Assay: SPR

Row | Kd [µM] | Binder
1 | 87 | mouse NELL2 EGF1–6 R448A/Y450A (domain or fragment) not shown
2 | 0.71 | mouse NELL2 EGF1–6, wild type (domain or fragment) not shown
3 | ~400 | mouse NELL2 EGF1–6 L498A/F500A (domain or fragment) not shown

Reference: PMC7083938 (2020)
